In patent US8026342B2, “Compositions and methods for binding sphingosine-1-phosphate” (Lpath, Inc., priority 2006, dated 2011):

B1: LT1002: murine anti-S1P monoclonal antibody, IgG1 kappa, from hybridoma clone 306D326.26 (antibody, listed as Mus sp., V domains shown)
VH: QAHLQQSDAELVKPGASVKISCKVSGFIFIDHTIHWMKQRPEQGLEWIGCISPRHDITKYNEMFRGKATLTADKSSTTAYIQVNSLTFEDSAVYFCARGGFYGSTIWFDFWGQGTTLTVS
VL: ETTVTQSPASLSMAIGEKVTIRCITTTDIDDDMNWFQQKPGEPPNLLISEGNILRPGVPSRFSSSGYGTDFLFTIENMLSEDVADYYCLQSDNLPFTFGSGTKLEIK

Experiments:
[1] = GLP 28-day safety toxicology study of LT1009 in monkeys; format: in vivo
Experimental: In addition, blood was collected from recovery animals 48, 72, 144 and 240 hours following the end of the last dose. Parameters monitored during this study included mortality, clinical signs, body weight, qualitative evaluation of the food consumption, ophthalmology, electrocardiography, and clinical pathology (hematology, clinical chemistry, coagulation and urinalysis). Blood samples were also collected for immunophenotyping assessments, at pre-treatment, on the last day of treatment, and on days 35, 42 and at the end of the recovery period. At termination, a macroscopic examination was performed and selected organs were weighed. Histological evaluation of tissues was conducted on all animals.

CNV lesions [2] = experiment: Sonepcizumab dose response in laser CNV model (fluorescein-labeled dextran); format: in vivo, mice
Experimental: Mice (n=10) received a single, bilateral intravitreal injection of escalating doses of sonepcizumab (0.085, 0.85, 1.7 or 5 μg/eye) or a high dose nonspecific (NS) antibody (3.0 μg/eye) one day prior to laser-induced rupture of Bruch's membrane. Fourteen days after laser rupture, mice were anesthetized and perfused with fluorescein-labeled dextran and choroidal flatmounts were prepared for analysis of CNV lesion size.
In this study, the effect of sonepcizumab dose amount and dose interval on CNV inhibition were examined using another validated method of quantifying CNV area in which animals were perfused with fluorescein-labeled dextran just before sacrifice. Sonepcizumab induced a dose-dependent reduction in the area of CNV resulting in a maximal inhibition of approximately 50%, at a dose of 5 μg/eye. This reduction was significant (p<0.0001 compared to non-specific antibody control using an unpaired t-test). In the dosing frequency study, similar efficacy was observed between groups treated with Sonepcizumab at a single timepoint (day 0) or at multiple timepoints (days 0 and 7) over the 14-day study.

CNV lesions [3] = experiment: Laser-induced rupture of Bruch's membrane, murine CNV model (Example 4); format: in vivo, C57BL6/J mice; conditions: 0.5 μg
Experimental: Female C57BL6/J mice were subjected to laser-induced rupture of Bruch's membrane and administered either 0.5 μg of Sphingomab or an isotype-matched non-specific (NS) antibody diluted in 2 μl of physiological saline. Mice were sacrificed 14 and 28 days after laser rupture.
To induce CNV lesions, the pupils were dilated with ophthalmic tropicamide (0.5%) and phenylephrine (2.5%). A coverslip was placed on the eye. An Oculight GL 532 nm (Iridex Corporation, Mountain View, Calif.) coupled to a slit lamp set to deliver a 100 msec pulse at 150 mW with a 50 μm spot size was used to rupture Bruch's membrane in three quadrants of the right eye located approximately 50 μm from the optic disc at relative 9, 12 and 3 o'clock positions. The left eye served as an uninjured control in all cases. Any lesion not associated with a vapor bubble or lesions that became confluent were excluded from analysis.
To measure CNV lesion size, choroidal flatmounts of the sclera-choroid-RPE complex were prepared and stained for vasculature (R. communis agglutinin I; red) and pericytes (CD 140b; green). […]
To assess collagen deposition, the sclera-choroid-RPE complex was stained with Masson's Trichrome. […] Approximately 30 sections per lesion were evaluated. Quantitation of the volume of collagen deposition was calculated in the same manner as described for CNV lesion volume.

[4] = system: cardiac scar formation / immune-cell wound infiltration; experiment: Permanent myocardial infarction murine model (fibrosis, immune cell infiltration); format: in vivo, mice
Experimental: SPHINGOMAB reduced immune-cell wound infiltration in vivo. Mice were subjected to MI, treated with saline or 25 mg/kg SPHINGOMAB 48 hr. after surgery and then sacrificed on day 4. SPHINGOMAB reduced macrophage (A) and mast cell (B) infiltration into the wound. Data are represented as fold decrease of saline-treated values.
Studies evaluated the efficacy of SPHINGOMAB to reduce cardiac scar formation after permanent myocardial infarction (MI) via ligation of the left descending coronary artery in mice. Systemic administration of 25 mg/kg SPHINGOMAB or saline was initiated 48 hrs after surgery. Antibody administration at 48 hr. was chosen to allow normal, reparative scar formation to occur during the early remodeling phase and permit beneficial, S1P-stimulated angiogenesis immediately after the MI. Two weeks after the infarct, mice were sacrificed and fibrosis was accessed by Masson's trichrome staining of the cardiac tissue. […] As a control for any non-specific wound-healing responses, sham animals underwent thoracotomy without coronary artery ligation (FIG. 7E).
Based upon the similarities of immune and inflammatory responses in CNV and CVD, the efficacy of SPHINGOMAB to mitigate immune cell infiltration into a wound was evaluated in a murine infarct model as an indication of SPHINGOMAB's potential effects in mitigating these damages during AMD [Vine, et al. (2005), Ophthalmology., vol 112: 2076-80; and Seddon and Chen (2004), Int Ophthalmol Clin., vol 44: 17-39]. Four days post-MI, macrophage and mast cell infiltration was evaluated using MAC-1 and MCG35 antibodies, respectively, within the area at risk.

[5] = 28-day toxicity and toxicokinetic study of LT1002 in mice; format: in vivo; conditions: 28 days
Experimental: The purpose of this study was to determine the toxicity and toxicokinetic profile of the murine anti-S1P monoclonal antibody, LT1002, following daily administration to C57/BL6 mice. The study was conducted by an independent contract laboratory organization, LAB Research, Inc. The LT1002 dosing solutions were administered for 28 consecutive days to animals in each group by bolus intravenous injection via the tail vein (Days 1-14) and then by bolus intraperitoneal injection (Days 15-28), over a period of approximately 0.5-1.0 minute. The treated group animals were dosed with LT1002 at 30, 75 or 200 mg/kg (n=6 per group) and compared to animals treated with PBS as a saline (vehicle) control group.
During the study, animals were monitored for effects on mortality, clinical condition, body weight and food consumption. Blood samples were collected from a subgroup of animals at necropsy for assessment of hematology, coagulation and clinical chemistry. Study animals were euthanized and subjected to a necropsy examination. Selected organs were weighed and a full list of tissues was retained. A histopathology examination was performed on the full tissue list from all control and high dose animals (200 mg/kg/day) and all abnormalities, while target organs were examined on lower dose groups. Blood samples were collected from the toxicokinetic animals (3 animals/sex/group/time point) on Days 1, 14 and 28 and the animals were euthanized and discarded without examination.

[6] = Surface plasmon resonance (Biacore 2000) binding to S1P-coated chip; conditions: read-out: Binding Affinity (KD1)
Experimental: Each concentration was tested in duplicate. […] All data were collected at 25° C.

| Molecule | absolute number of T cells on Day 28 ([1]; 100 mg/kg) | mean lymphocyte counts (+/-SD) after treatment ([1]; 100 mg/kg, males and females combined) | tolerability ([1]; 3, 10, 30 and 100 mg/kg every third day over 28 days) | No Observed Toxic Effect Level (NOTEL) ([1]; 30-minute i.v. infusion every third day for 28 days) [mg/kg] | maximal inhibition of CNV area (CNV lesions [2]; 5 μg/eye single intravitreal, 14 days) | reduction in CNV lesion size greater than that observed with the VEGF-Trap (CNV lesions [2]; comparison of two independent studies, VEGF-Trap 4.92 μg/eye (Saishin et al.)) [percentage points] | choroidal neovascularization (CNV lesions [3]; 14 and 28 days after laser rupture) | fibrosis associated with CNV lesion formation (CNV lesions [3]; 28 days after laser rupture) | perivascular fibrosis ([4]; 25 mg/kg from 48 hrs after surgery, two weeks after infarct) | density of inflammatory macrophages ([4]; four days post-MI) | density of mast cells ([4]; four days post-MI) | average lymphocyte counts (+/-SD) ([5]; 30 mg/kg daily) | average lymphocyte counts (+/-SD) ([5]; 75 mg/kg daily) | average lymphocyte counts (+/-SD) ([5]; 200 mg/kg daily) | Kd [6] [nM] |
| --- | --- | --- | --- | --- | --- | --- | --- | --- | --- | --- | --- | --- | --- | --- | --- |
| LT1009: humanized anti-S1P IgG1/kappa mAb with Cys to Ala in HCDR2, light chain with 5 backmutations; SEQ ID NO: 31/32 | statistically significant decrease | 3.18+/−1.25 10^9 cells/L | well tolerated | 100 | approximately 50% | 20 | – | – | – | – | – | – | – | – | – |
| B1 | – | – | – | – | – | – | dramatically attenuates | significantly reduces | almost complete abrogation | dramatically attenuated | dramatically attenuated | 0.856+/−0.426 10^9 cells/L | 0.902+/−0.269 10^9 cells/L | 0.638+/−0.262 10^9 cells/L | 0.026 |
